Sequences and labels used below:
B1: single-chain phage antibody SC03-015 (scFv)
scFv: AMAEVQLVESGGGVVRPGGSLRLSCAASGFTFDDYGMSWVRQAPGKGLEWVSGINWNGGSTGYADSVKGRFTISRDNAKNSLYLQMNSLRAEDTAVYYCARGLSLRPWGQGTLVTVSRGGGGSGGGGSGGGGSSELTQDPAVSVALGQTVRITCQGDSLRSYYASWYQQKPGQAPVLVIYGKNNRPSGIPDRFSGSSSGNTASLTITGAQAEDEADYYCNSRDSSGNHVVFGGGTKLTVLGAAA
B2: single-chain phage antibody SC03-006 (scFv)
scFv: SMAEVQLVESGGGLVQPGGSLRLSCAASGFTFSGYPMHWVRQAPGKGLEWVAVISYDGSNKYYADSVKGRFTISRDNSKNTLYLQMNSLRAEDTAVYYCAKDGSPRTPSFDYWGQGTLVTVLEGTGGSGGTGSGTGTSELDIQMTQSPHSLSASVGDRVTITCRASQGISNYLAWYQQKPGKVPKLLIYAASTLQSGVPSRFSGSGSGTDFTLTISSLQPEDVGVYYCQQRFRTPVTFGQGTKLEIKRAAA
B3: single-chain phage antibody SC03-012 (scFv)
scFv: AMAQVQLVQSGAEVKKPGASVKVSCKASGYTFTSYGISWVRQAPGQGLEWMGWISAYNGNTNYAQKLQGRVTMTTDTSTSTAYMELSSLRSDDTAVYYCARMFRKSSFDSWGQGTLVTVSRGGGGSGGGGSGGGGSSELTQDPAVSVALGQTVRITCQGDSLRSYYASWYQQKPGQAPVLVIYGKNNRPSGIPDRFSGSSSGNTASLTITGAQAEDEADYYCNSRDSSGNHVVFGGGTKLTVLGAAA

The target of the assay is inactivated SARS-CoV preparation (Frankfurt 1 strain), gamma-irradiated.
Molecule B1 gave an OD492 nm of 0.796 OD492 nm. For B2, the OD492 nm amounted to 1.06 OD492 nm. The value for B3 was 0.495 OD492 nm.
